Experimental data as given in the RNAGym collection of RNA variant scans (doi:10.7554/elife.80360).

B1: HDV Ribozyme (parent)
chain: GGCCGGCAUGGUCCCAGCCUCCUCGCUGGCGCCGGCUGGGCAACAUUCCGAGGGGACCGUCCCCUCGGUAAUGGCGAAUGGGACCCA

Variants of: B1
Test: self-cleavage, relative activity (ratio to wild type); higher = more cleavage; co-transcriptional
Variant GGCCGGCAUGGUCCCAGCCUCCACGCUGGCGCCGGCUGGGCAACAUUCCGAGGGGACCGUCCCCUCGGUAAUGGCGAAUGGGACCCA has a self-cleavage of 0.985. In the case of GGCCGGCAUGGUCCCAUCCUCCUCGCUGGCGCCGGCUGGGCAACAUUCCGAGGGGACCGUCCCCUCGGUAAUGGCGAGUGGGACCCA, the self-cleavage is reported as 0.201. GGCCGGCAUGGUCCCAGCCUCCUCGCUGGCGCCGGCUGGGCAACCUUCCGAGGGGACCGUGCCCUCGGUAAUGGCGAAUGGGACCCA gave a self-cleavage of 0.6. For GGCCGGCAUGGUCCCAGCCUCCUCGCUGGCGCCGGCUGGGCAACAUUCUGAGGGGUCCGUCCCCUCGGUAAUGGCGAAUGGGACCCA, the self-cleavage was 0.973. GGCCGGCAUGGUCCCAGCCUCCUCGCUGGCGCCGGCUGGGCAACAUUCCAAGGGGACCGUCCCCUCGGUAAUGGCGAAUGUGACCCA showed a self-cleavage of 0.281. In the case of GGCCGGCAUGGUCCCAGCCUCCUCGCUGGCGCCGGCUGGGCAACAUUCCGAGGGGACCGUCUCCUCGGUAAUGGCGAAUGGAACCCA, the self-cleavage is reported as 0.338. GGCCGGCAUGGUCCCAGCCUCCUCGCUGGCGCCGGCUGGGGAACAUUCCGAGGGGACCGUCCCCUCGAUAAUGGCGAAUGGGACCCA gave a self-cleavage of 0.45. Work on GGCGGGCAUGGUCCCAGCCUCCUCGCUGGCGCCGGCUGGGCAAAAUUCCGAGGGGACCGUCCCCUCGGUAAUGGCGAAUGGGACCCA yielded a self-cleavage of 0.0346. Work on GGCCGGCAUGGUCCCAGCCUCCUCGCUGGCGCCGGCUGGGCAACAUUCCGAGGGGAAUGUCCCCUCGGUAAUGGCGAAUGGGACCCA yielded a self-cleavage of 1.05. In the case of GGCCGGCAUGGUCCCAGCCUCCGCGCUGGCGCCGGCUGGGCAACAUUCCGAGGGGACCGUCCCCUCGGUAAUGGCGAACGGGACCCA, the self-cleavage is reported as 0.125. GGCCGGCAUGGUCCCAGCCUCCUCCCUGGCGCCGGCAGGGCAACAUUCCGAGGGGACCGUCCCCUCGGUAAUGGCGAAUGGGACCCA gave a self-cleavage of 0.0426. GGCCGGCAUGGUCCCAGCCUCCUCGCUGGCGCCGGCUGGGCAACAUUCCGAGGGGGCCGUCCUCUCGGUAAUGGCGAAUGGGACCCA gave a self-cleavage of 0.682. In the case of GGCCGGCAUGGUCCCAGCCUCCUCGCUGGCGCCGGCUGGGCAACAUUCCGAGUGGACCGUCCCCUCGAUAAUGGCGAAUGGGACCCA, the self-cleavage is reported as 0.903. In the case of GACCGGCAUGGUCCCAGCCUCCUCGCUGGCGCCCGCUGGGCAACAUUCCGAGGGGACCGUCCCCUCGGUAAUGGCGAAUGGGACCCA, the self-cleavage is reported as 0.0489. For GGCCGGCAUGGUCCCAGCCUCCUCGCUGGCGCCGGCUGGGCAACACUCCGAGGGGACCGUCCCCUCGGGAAUGGCGAAUGGGACCCA, the self-cleavage was 1.08. Work on GGCCAGCAUGGUCCCAGCCUCCUCGCUGGCGCCGGCUGGGCAACAUUCCGAGGGGACCGUCCCCUCGGGAAUGGCGAAUGGGACCCA yielded a self-cleavage of 0.353. GGCCGGCAUGGUCCCAGCAUCCUCGCUGGCGCCGGCUGGGCAACAUUCCGAGGGGACCGUCCCCUCGGUAAUGGCGAAUGGGACCCU gave a self-cleavage of 0.223. For GGCCGGCAUGGUCGCAGCCUCCUCGCUGGCGCCGGCUGGGCAACAUUCCGAGGGGACCGUCCCGUCGGUAAUGGCGAAUGGGACCCA, the self-cleavage was 0.485. For GGCCGGCAUGGUCACAGCCUCCUCGCUGGCGCCGGCUGGCCAACAUUCCGAGGGGACCGUCCCCUCGGUAAUGGCGAAUGGGACCCA, the self-cleavage was 0.185. For GGCCGGCAUGGUCCCAGCCUCCUCGCUGGCGCCGGCUGGGCAACAUUCCGAGGGGACCGUCCCCUCCGUAACGGCGAAUGGGACCCA, the self-cleavage was 0.147. GGCCGGCAUGGUCCCAGCCUCCUCGCUGGCGCCGGCUGGGCAGCAUUCCGAGGGGACCGUCCCCUCGGUAAUGGCGAAUGGUACCCA showed a self-cleavage of 0.189. GGCCGGCAUGGUCCUAGCCUCCUCGCUGGCGCCGGCUGGGCAACAUUCCGAGGGGACCGUCCCCUCCGUAAUGGCGAAUGGGACCCA showed a self-cleavage of 0.883. For GUCCGGCAUGGUCCCAGCCUCCUCGCUGGCGCCGGCUGGUCAACAUUCCGAGGGGACCGUCCCCUCGGUAAUGGCGAAUGGGACCCA, the self-cleavage was 0.0132. GGCCGGCAUGGUCCCAGCCUCCUCGCUGGCGCCGUCUGGGCAACAUUCCGAGGGGACCGUCCCCUCGGUAAUGGCGAAUGGGACGCA showed a self-cleavage of 0.356. In the case of GGCCGGCAUGGUCCCAGCCUCCUCGCUGGCGCCGGCUGGGCAUCCUUCCGAGGGGACCGUCCCCUCGGUAAUGGCGAAUGGGACCCA, the self-cleavage is reported as 0.877. With GGCCGGCAUGGUCCAAGCCUCCUCGCUGGCGCCGGCUGGGCACCAUUCCGAGGGGACCGUCCCCUCGGUAAUGGCGAAUGGGACCCA the self-cleavage was 0.0554. In the case of GGCCGGCAUGGUCCCAGCCUCCUCGCUGUCGCCGGCUGGGCAACAUUCCGAGGGGACCGUCCCCUCGGUAAUGGCGAAUGCGACCCA, the self-cleavage is reported as 0.086. GGCCGGCAUGGUCCCAGCCUCCUCUCUGGCGCCGCCUGGGCAACAUUCCGAGGGGACCGUCCCCUCGGUAAUGGCGAAUGGGACCCA showed a self-cleavage of 0.0707. GGCCGGCAUGGUCCCAGCCUCCUCGCUGGCGCCGGCUGGGCAACAUUCCGAGAGAACCGUCCCCUCGGUAAUGGCGAAUGGGACCCA showed a self-cleavage of 0.923. In the case of GACCGGCAUGGUCCCAGCCUCCUCGCUGGCGCCGGCUGGGCAACAUUCCGAGGGGACCGUCCCCUCGGUUAUGGCGAAUGGGACCCA, the self-cleavage is reported as 0.228. In the case of GGCCGGCAUGGUCCCAGCCUCCUCGCUGGCGCCGGUUGGGCAACAUUGCGAGGGGACCGUCCCCUCGGUAAUGGCGAAUGGGACCCA, the self-cleavage is reported as 0.831. In the case of GGCCGGCAUGGUCUCAGCAUCCUCGCUGGCGCCGGCUGGGCAACAUUCCGAGGGGACCGUCCCCUCGGUAAUGGCGAAUGGGACCCA, the self-cleavage is reported as 0.0545. Work on GGCCGGCAUGGACCCAGCCUCCUCGCUGGCCCCGGCUGGGCAACAUUCCGAGGGGACCGUCCCCUCGGUAAUGGCGAAUGGGACCCA yielded a self-cleavage of 0. Work on GGCCGGCAUGGUCCCAGCCUCCUCGCUAGCGCCGGCUGGGCAACAUUCCGAGGGGACCGUCCCCUCGGUAAUGGCGAAUGGGAACCA yielded a self-cleavage of 0.151. GGCCGUCAUGGUCCCAGCCUACUCGCUGGCGCCGGCUGGGCAACAUUCCGAGGGGACCGUCCCCUCGGUAAUGGCGAAUGGGACCCA showed a self-cleavage of 0.227. With GUCCGGCAUGGUCCCAGCCUCCUCGCUGGCGCCGGCUGGGCAACAUUCCGAGGGGACCGUCCCCUCGGUAAUGGCGAAUGGGACACA the self-cleavage was 0.104. With GGCCGGCAUGGUCCAAGCCUCCUCGCUGGCGCCGGCUGGGCAACAUUCCGAGGGGACCGUCCCCUCGGUAAUGGCGAAUGGGAACCA the self-cleavage was 0.539. With GGCCGGCAUGGUCCCAGCCUCCUCGCUGGCGCCGGCUGCGCAACAUUCCGAGGGGACCGUCCCCUCGGGAAUGGCGAAUGGGACCCA the self-cleavage was 0.133. For GGCCGGCAUGGUCCCAGCCUCCUCGCUGGCGCCGUCUGGGCAACAUUCCGAGGGGACCGUCCCCGCGGUAAUGGCGAAUGGGACCCA, the self-cleavage was 0.424. GGCCGGCAUGGUCCCAGCCUCCGCGCUGGCGCCGGCUGGGCAACAUUCCGAGGGGACCGUCCCCUCGGUAACGGCGAAUGGGACCCA showed a self-cleavage of 0.391. GGCCGGCAUGGUGCCAGCCUCCUCGCUGGCGCCGGCCGGGCAACAUUCCGAGGGGACCGUCCCCUCGGUAAUGGCGAAUGGGACCCA gave a self-cleavage of 0.237. GGCCGGCAUGGUCCCAGCCUCCUCGCUGGCGCCGGCUGGGCAACAUUCCGAGGGGACCGUCCCCUUCGUAAUGGCGAAUGGGACCCA showed a self-cleavage of 1.16. In the case of GGCCGGCAUGGUCCCAGCCUCCUCGCUGGCACCGGCUGGGCCACAUUCCGAGGGGACCGUCCCCUCGGUAAUGGCGAAUGGGACCCA, the self-cleavage is reported as 0.102. Variant GGCCGGCAUGCUCCCAGGCUCCUCGCUGGCGCCGGCUGGGCAACAUUCCGAGGGGACCGUCCCCUCGGUAAUGGCGAAUGGGACCCA has a self-cleavage of 0. Variant GGCCGGCAUCGUCCCAGCCUCCUCGCUGGCGCCGGCUGGGCAACAUUCCGAGGGGACCGUCCCCUCGUUAAUGGCGAAUGGGACCCA has a self-cleavage of 0.778. GGCCGGCAUGGUCCCAGCCUCCUCGCUGGCGCCGGCUGGGCAACAUUCCCAGGGGACCGUCCCCUCGGUAAUGGCGAAUGGGACUCA showed a self-cleavage of 1.09. GGCAGGCAUGGUCCCCGCCUCCUCGCUGGCGCCGGCUGGGCAACAUUCCGAGGGGACCGUCCCCUCGGUAAUGGCGAAUGGGACCCA gave a self-cleavage of 0.0339. GGCCGGCAUGGUCCCAGCCUCCUCGCUGGCGCCGGCUGGGCAACAUUCCGAGGGGACUGUCCCGUCGGUAAUGGCGAAUGGGACCCA showed a self-cleavage of 0.895. GGCCGGCAUGGUCCCAGCCUCCUCGCUGGCGCCCGCUGGGCAACAUUCCGAGGGGACCGACCCCUCGGUAAUGGCGAAUGGGACCCA showed a self-cleavage of 0.306. Work on GGCCGGCAUGGUCCCAGCCUCCUCGCUGGCGCCGGCUGGGCACUAUUCCGAGGGGACCGUCCCCUCGGUAAUGGCGAAUGGGACCCA yielded a self-cleavage of 0.923. Work on GGCCGGCAUGGUCCCACCCUCCUCGCUGGCGCCGGCUGGGCAACAUUCCGAGGAGACCGUCCCCUCGGUAAUGGCGAAUGGGACCCA yielded a self-cleavage of 0.262. Work on GGCCGGCAUGGUCCCAGCCUCCUCGCUGGCGCCGGCCGGGCAACAUUCCGAGGGGACCGUCCUCUCGGUAAUGGCGAAUGGGACCCA yielded a self-cleavage of 1.11. GGCCGGCAUGAUCCCAGCCUCCUCGCUGGCGCCGGCUGGGCAACAUUCCGAGGGGACCGUCCCCUCGGUAAUGGCGAAUGGGACCAA showed a self-cleavage of 0.535. GGCCGGCAUGGUCCCAGCCUCCUCGCUGGCGCCGGCUGGGCAACAUACCGAGGGGACCGUCCCCUCGGUAAUGGCGGAUGGGACCCA gave a self-cleavage of 0.831. With GGCCGGCAUGGUCCCAGCAUCCUCGCUGGCGCCGGCUGGGCAACAUACCGAGGGGACCGUCCCCUCGGUAAUGGCGAAUGGGACCCA the self-cleavage was 0.0554. Work on GGCCGGCAUGGUCCCAGCCUCCUCGCUGGCGCCGGCUGGGCAACAUUCCGAGGGGACCGUCCCCUCGGUAAAGGCGAAAGGGACCCA yielded a self-cleavage of 0.536. GGCCCGCAUGGUCACAGCCUCCUCGCUGGCGCCGGCUGGGCAACAUUCCGAGGGGACCGUCCCCUCGGUAAUGGCGAAUGGGACCCA showed a self-cleavage of 0.0692. Work on GGCCGGCAUGGUCCCAGCCUCCUCGCUGGCGCCGGCUGGGCAACAUUCCGAGGGGACCGUUCCCUCAGUAAUGGCGAAUGGGACCCA yielded a self-cleavage of 0.562. In the case of GGCCGGCAUGGUCCCAGCCUCCUCGCUGCCGCCGGCUGGGCAACAUUCCGAGGGGACCGUCCCCUCGGUAAUGGGGAAUGGGACCCA, the self-cleavage is reported as 0.131. Variant GGGCGGCAUGGUCCCAGCCUCCUCGCUGGCGCCGGCUGGGCAACAUUCCGAGGGGACCGUCCCCUCGGUAUUGGCGAAUGGGACCCA has a self-cleavage of 0.502. In the case of GGCCGGCAUGGUCCCAGCCUCCUCGCUGGCGCCGGCUGGGCAACAUUCCGAGGGGUCCGUCCCCUCGGUAAUGGCGAAUGUGACCCA, the self-cleavage is reported as 0.381. Variant GGCCGGCAUGGUCCCAGCCUCCUCGCUGUCGCCGGCUGGGCUACAUUCCGAGGGGACCGUCCCCUCGGUAAUGGCGAAUGGGACCCA has a self-cleavage of 0.102. Work on GGCCGGUAUGGUCCCAGCCUCCUCGCUGGCGCCGGCUGGGCAACAUUCCGAGGGGACCGUCCCCUCGGUAAUGGCGAAUGAGACCCA yielded a self-cleavage of 0.352. Variant GGCCGGCAUGGUCCCAGCCUCCUCGCUGGCGCCGGCUGGGCAACAUUCCGAGGGGACCGUCCCCUCGGUAAUGGCUAAUGGUACCCA has a self-cleavage of 0.483.
